These results are taken from ChEMBL document CHEMBL4043266, “Pentacyclic triterpenes as α-glucosidase and α-amylase inhibitors: Structure-activity relationships and the synergism with acarbose” (Bioorg Med Chem Lett, 2017).

What all share (settings): Sus scrofa
Compound in data set [1]: C[C@H]1[C@H](C)CC[C@]2(C(=O)O)CC[C@]3(C)C(=CC[C@@H]4[C@@]5(C)C[C@@H](O)[C@H](O)C(C)(C)[C@@H]5CC[C@]43C)[C@H]12
Briefly: Inhibition of porcine pancreatic alpha-amylase assessed as Km for substrate using starch as substrate at 31.2 uM by Michaelis-Menten plot analysis (reference value: 2.48 +/- 0.24 mg/ml).

Compound in data set [2]: C[C@H]1[C@H](C)CC[C@]2(C(=O)O)CC[C@]3(C)C(=CC[C@@H]4[C@@]5(C)C[C@@H](O)[C@H](O)C(C)(C)[C@@H]5CC[C@]43C)[C@H]12
Description: Inhibition of porcine pancreatic alpha-amylase assessed as Vmax for substrate using starch as substrate at 15.6 uM by Michaelis-Menten plot analysis (reference value: 28.6 +/- 1.8 microg/ml/min).

Compound in data set [3]: C[C@H]1[C@H](C)CC[C@]2(C(=O)O)CC[C@]3(C)C(=CC[C@@H]4[C@@]5(C)C[C@@H](O)[C@H](O)C(C)(C)[C@@H]5CC[C@]43C)[C@H]12
Briefly: Inhibition of porcine pancreatic alpha-amylase assessed as Km for substrate using starch as substrate at 15.6 uM by Michaelis-Menten plot analysis (reference value: 2.48 +/- 0.24 mg/ml).

Compound in data set [4]: C[C@H]1[C@H](C)CC[C@]2(C(=O)O)CC[C@]3(C)C(=CC[C@@H]4[C@@]5(C)C[C@@H](O)[C@H](O)C(C)(C)[C@@H]5CC[C@]43C)[C@H]12
Briefly: Inhibition of porcine pancreatic alpha-amylase assessed as Vmax for substrate using starch as substrate at 31.2 uM by Michaelis-Menten plot analysis (reference value: 28.6 +/- 1.8 microg/ml/min).

B1: Pancreatic alpha-amylase (Sus scrofa), P00690 (protein)
chain: MKLFLLLSAFGFCWAQYAPQTQSGRTSIVHLFEWRWVDIALECERYLGPKGFGGVQVSPPNENIVVTNPSRPWWERYQPVSYKLCTRSGNENEFRDMVTRCNNVGVRIYVDAVINHMCGSGAAAGTGTTCGSYCNPGNREFPAVPYSAWDFNDGKCKTASGGIESYNDPYQVRDCQLVGLLDLALEKDYVRSMIADYLNKLIDIGVAGFRIDASKHMWPGDIKAVLDKLHNLNTNWFPAGSRPFIFQEVIDLGGEAIQSSEYFGNGRVTEFKYGAKLGTVVRKWSGEKMSYLKNWGEGWGFMPSDRALVFVDNHDNQRGHGAGGASILTFWDARLYKVAVGFMLAHPYGFTRVMSSYRWARNFVNGQDVNDWIGPPNNNGVIKEVTINADTTCGNDWVCEHRWRQIRNMVWFRNVVDGQPFANWWANGSNQVAFGRGNRGFIVFNNDDWQLSSTLQTGLPGGTYCDVISGDKVGNSCTGIKVYVSSDGTAQFSISNSAEDPFIAIHAESKL
Usually Km stands for the concentration of substrate that gives half-maximal velocity. In the case of B1, the Michaelis constant (Km) is 2.69 mg/mL in data set [1] and 2.28 mg/mL in data set [3]. Besides, the Vmax worked out at 21 µg/mL/min in data set [2] and 14.3 µg/mL/min in data set [4].
